Assay results taken from publication PMC9317960 (Biochemical Journal, 2022).

Target: T1, SCRIB PDZ3 K1040A (human, UniProt Q14160 1002-1094, K1040A)
T1 sequence: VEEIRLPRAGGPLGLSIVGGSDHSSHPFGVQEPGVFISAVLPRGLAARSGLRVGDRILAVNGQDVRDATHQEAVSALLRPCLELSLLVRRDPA
Test: ITC
Conditions: both partners purified

LRLESSII [TBEV NS5_CTN peptide (C-terminal PBM of NS5)] was tested, and the Kd was 12.5 µM, the dH was -6.7 kcal/mol and the “stoichiometry N” value was 0.9.
